Source: US20220088057

System: GST-fusion SMAD3 protein (Sigma-Aldrich Co. LLC.)

In the case of “His-fusion NEK6 protein (Eurofins Scientific SE)”, the “amount of phosphorylated SMAD3 (Western blot after in vitro kinase reaction of purified proteins with ATP)” value is reported as “By using NEK6 protein, the amount of phosphorylated SMAD3 was elevated”.
